# Experimental data published in patent US10766960 (dated 2020).
# Where a chain is given by its changes, count along the chain named.
# B1: GpH7-Kn045/GpH7-Hl048/GpL16-k0 (antibody)
# chain 1: QVQLVQSGAEVKKPGASVTVSCKASGYTFTDYEMHWIRQPPGEGLEWIGAIDPKTGDTAYSESFQDRVTLTADKSTSTAYMELSSLTSEDTAVYYCTRFYSYTYWGQGTLVTVSSASTKGPSVFPLAPSSKSTSGGTAALGCLVKDYFPEPVTVSWNSGALTSGVHTFPAVLQSSGLYSLSSVVTVPSSSLGTQTYICNVNHKPSNTKVDKKVEPKSCDKTHTCPPCPAPEYYAGPSVFLFPPKPKDTLMISRTPEVTCVVVDVSDEDPEVKFNWYVDGVEVHNAKTKPREEQYNATYRVVSVLTVLHQDWLNGKEYKCKVSNKALPAPIEKTISKAKGQPREPQVCTLPPSRDELTKNQVSLWCLVKGFYPSDIAVEWESNGQPENNYKTTPPVLDSDGSFFLYSKLTVDKSRWQQGNVFSCSVMHEALHNHYTQKSLSLSP
# chain 2: QVQLVQSGAEVKKPGASVTVSCKASGYTFTDYEMHWIRQPPGEGLEWIGAIDPKTGDTAYSESFQDRVTLTADKSTSTAYMELSSLTSEDTAVYYCTRFYSYTYWGQGTLVTVSSASTKGPSVFPLAPSSKSTSGGTAALGCLVKDYFPEPVTVSWNSGALTSGVHTFPAVLQSSGLYSLSSVVTVPSSSLGTQTYICNVNHKPSNTKVDKKVEPKSCDKTHTCPPCPAPELLAGPDVFLFPPKPKDTLMISRTPEVTCVVVDVSHEDPEVKFNWYVDGVEVHNAKTKPREEQYNSTYRVVSVLTVLHQDWLNGKEYKCKVSNKALPKPEEKTISKAKGQPREPQVYTLPPSRCELTKNQVSLSCAVKGFYPSDIAVEWESNGQPENNYKTTPPVLDSDGSFFLVSKLTVDKSRWQQGNVFSCSVMHEALHNHYTQKSLSLSP
# chain 3: DIVMTQSPLSLPVTPGEPASISCQASESLVHSNRNTYLHWYLQKPGQSPQLLIYKVSNRFSGVPDRFSGSGSGTDFTLKISRVEAEDVGVYYCSQNTHVPPTFGQGTKVEIERTVAAPSVFIFPPSDEQLKSGTASVVCLLNNFYPREAKVQWKVDNALQSGNSQESVTEQDSKDSTYSLSSTLTLSKADYEKHKVYACEVTHQGLSSPVTKSFNRGEC
# B2: GpH7-Kn032/GpH7-Hl032/GpL16-k0 (antibody)
# chain 1: B1 chain 2 with A234G, K328L, Y347C, C354D, S364W, A366L, V405Y
# chain 2: B1 chain 2 with A234G, K328L
# chain 3: B1 chain 3
# B3: GpH7-Kn056/GpH7-Hl055/GpL16-k0 (antibody)
# chain 1: B1 chain 1 with Q293L
# chain 2: B1 chain 2 with Q293L, K328M
# chain 3: B1 chain 3
# B4: GpH7-Kn033/GpH7-Hl033/GpL16-k0 (antibody)
# chain 1: not shown
# chain 2: not shown
# chain 3: B1 chain 3
# B5: GpH7-Kn037/GpH7-Hl036/GpL16-k0 (antibody)
# chain 1: B1 chain 2 with K328A, Y347C, C354D, S364W, A366L, V405Y
# chain 2: B1 chain 2 with K328A
# chain 3: B1 chain 3
# B6: GpH7-Kn045/GpH7-Hl055/GpL16-k0 (antibody)
# chain 1: B1 chain 1
# chain 2: B1 chain 2 with Q293L, K328M
# chain 3: B1 chain 3
# B7: H240-Kn179/H240-Hl089/L73-k0 (antibody)
# chain 1: QDQLVQSGAEVKKPGASVKVSCKASGFNIKDTYIQWVRQAPGQGLEWMGRIDPLRKQTKYREKFEGRVTITADTSTNTAYMELSSLRSEDTAVYYCVRSGREFDYWGQGTLVTVSSASTKGPSVFPLAPSSKSTSGGTAALGCLVKDYFPEPVTVSWNSGALTSGVHTFPAVLQSSGLYSLSSVVTVPSSSLGTQTYICNVNHKPSNTKVDKKVEPKSCDKTHTCPPCPAPEYYWGPMVFLFPPKPKDTLMISRTPEVTCVVVDVSDEDPEVKFNWYVDGVEVHNAKTKPREKQYNATYRVVSVLTVLHQDWLNGKEYKCKVSNKDLPAPIEKTISKAKGQPREPQVCTLPPSRDELTKNQVSLWCLVKGFYPSDIAVEWESNGQPENNYKTTPPVLDSDGSFFLYSKLTVDKSRWQQGNVFSCSVMHEALHNHYTQKSLSLSP
# chain 2: QDQLVQSGAEVKKPGASVKVSCKASGFNIKDTYIQWVRQAPGQGLEWMGRIDPLRKQTKYREKFEGRVTITADTSTNTAYMELSSLRSEDTAVYYCVRSGREFDYWGQGTLVTVSSASTKGPSVFPLAPSSKSTSGGTAALGCLVKDYFPEPVTVSWNSGALTSGVHTFPAVLQSSGLYSLSSVVTVPSSSLGTQTYICNVNHKPSNTKVDKKVEPKSCDKTHTCPPCPAPELLTGPSVFLFPPKPKDTLMISRTPEVTCVVVDVSHEEPEVKFNWYVDGVEVHNAKTKPREEQYNSTYRVVSVLTVLHQDWLNGKEYKCKVSNDALPKPIEETISKAKGQPREPQVYTLPPSRCELTKNQVSLSCAVKGFYPSDIAVEWESNGQPENNYKTTPPVLDSDGSFFLVSKLTVDKSRWQQGNVFSCSVMHEALHNHYTQKSLSLSP
# chain 3: DIQMTQSPSSLSASVGDRVTITCRASQDIHKYIAWYQQKPGQAPRLLIQYTSTLQPGVPSRFSGSGSGTDYTFTISSLQPEDIATYYCLQYEQLRTFGGGTKVEIKRTVAAPSVFIFPPSDEQLKSGTASVVCLLNNFYPREAKVQWKVDNALQSGNSQESVTEQDSKDSTYSLSSTLTLSKADYEKHKVYACEVTHQGLSSPVTKSFNRGEC
# B8: H240-Kn192/H240-Hl204/L73-k0 (antibody)
# chain 1: B7 chain 1 with Y234N
# chain 2: B7 chain 2 with I331E
# chain 3: B7 chain 3
# B9: H240-Kn180/H240-Hl089/L73-k0 (antibody)
# chain 1: B7 chain 1 with K293R
# chain 2: B7 chain 2
# chain 3: B7 chain 3
# B10: H240-Kn193/H240-Hl204/L73-k0 (antibody)
# chain 1: B7 chain 1 with Y234N, K293R
# chain 2: B7 chain 2 with I331E
# chain 3: B7 chain 3
# B11: H240-Kn032/H240-Hl032/L73-k0 (antibody)
# chain 1: B7 chain 1 with Y233L, Y234L, W235G, M238D, D267H, K293E, A297S, D326A, A329L, I331E
# chain 2: B7 chain 2 with T235G, S238D, E269D, D325K, K329L, I331E, E333K
# chain 3: B7 chain 3
# Biological target: T1, FcgRIa (human, UniProt P12314)
# T1 chain: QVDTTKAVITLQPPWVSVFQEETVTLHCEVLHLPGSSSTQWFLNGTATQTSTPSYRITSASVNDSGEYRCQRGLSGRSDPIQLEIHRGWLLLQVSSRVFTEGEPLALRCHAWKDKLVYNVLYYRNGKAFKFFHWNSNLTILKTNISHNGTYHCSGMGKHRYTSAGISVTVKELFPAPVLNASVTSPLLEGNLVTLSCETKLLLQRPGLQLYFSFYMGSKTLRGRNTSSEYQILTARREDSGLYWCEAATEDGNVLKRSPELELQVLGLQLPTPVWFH
# Assay: SPR
row,Binder,Kd
1,B1,0.019 nM
2,B2,0.0028 nM
3,B3,0.023 nM
4,B4,0.069 nM
5,B5,0.012 nM
6,B6,0.019 nM

# Biological target: T2, FcgRIIb (human, UniProt P31994)
# T2 chain: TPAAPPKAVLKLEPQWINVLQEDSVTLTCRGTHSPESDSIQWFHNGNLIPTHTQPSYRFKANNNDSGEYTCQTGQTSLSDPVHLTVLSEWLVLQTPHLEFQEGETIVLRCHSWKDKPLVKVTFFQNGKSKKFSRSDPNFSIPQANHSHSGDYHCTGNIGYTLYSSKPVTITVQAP
# Assay: SPR
row,Binder,Kd
1,B7,400 nM
2,B8,290 nM
3,B9,380 nM
4,B10,290 nM

# Biological target: T3, FcgRIIa R (human, UniProt P12318)
# T3 chain: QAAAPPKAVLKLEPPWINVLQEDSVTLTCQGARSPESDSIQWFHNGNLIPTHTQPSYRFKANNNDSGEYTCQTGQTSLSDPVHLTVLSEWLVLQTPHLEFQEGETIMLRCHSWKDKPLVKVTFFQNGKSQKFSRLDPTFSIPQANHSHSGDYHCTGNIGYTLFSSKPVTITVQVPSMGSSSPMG
# Assay: SPR
row,Binder,Kd
1,B1,4.8 nM
2,B2,250 nM
3,B3,17 nM
4,B4,740 nM
5,B5,17 nM
6,B6,13 nM

# Biological target: T3, FcgRIIa R
# Assay: SPR
# Remark: another data set of the same source
row,Binder,Kd
1,B7,18 nM
2,B8,19 nM
3,B9,16 nM
4,B10,16 nM

# Biological target: T4, FcgRIIIa V (human, UniProt P08637)
# Assay: SPR
# T4 sequence (P08637 17-208 F176V): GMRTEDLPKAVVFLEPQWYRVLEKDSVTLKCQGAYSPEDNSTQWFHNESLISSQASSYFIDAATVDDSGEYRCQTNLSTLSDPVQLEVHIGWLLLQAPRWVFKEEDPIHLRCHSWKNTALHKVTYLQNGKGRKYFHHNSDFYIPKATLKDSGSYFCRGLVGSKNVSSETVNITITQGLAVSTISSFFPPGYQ
row,Binder,Kd
1,B11,3.1 nM

# Biological target: T1, FcgRIa
# Assay: SPR
# Remark: another data set of the same source
row,Binder,Kd
1,B11,0.073 nM

# Biological target: T5, FcgRIIIa F (human, UniProt P08637)
# Assay: SPR
# T5 sequence (P08637 17-208): as the sequence (P08637 17-208 F176V) above, with V160F counted along it
row,Binder,Kd
1,B7,39 nM
2,B8,12 nM
3,B9,24 nM
4,B10,11 nM

# Biological target: T5, FcgRIIIa F
# Assay: SPR
# Remark: another data set of the same source
row,Binder,Kd
1,B11,9.1 nM

# Biological target: T2, FcgRIIb
# Assay: SPR
# Remark: another data set of the same source
row,Binder,Kd
1,B11,630 nM

# Biological target: T6, FcgRIIa H (human, UniProt P12318)
# T6 chain: T3 chain with R134H
# Assay: SPR
row,Binder,Kd
1,B7,47 nM
2,B8,42 nM
3,B9,38 nM
4,B10,35 nM

# Biological target: T5, FcgRIIIa F
# Assay: SPR
# Remark: another data set of the same source
row,Binder,Kd
1,B1,3.7 nM
2,B2,4.1 nM
3,B3,1.4 nM
4,B4,1600 nM
5,B5,9.7 nM
6,B6,1.6 nM

# Biological target: T2, FcgRIIb
# Assay: SPR
# Remark: another data set of the same source
row,Binder,Kd
1,B1,110 nM
2,B2,440 nM
3,B3,260 nM
4,B4,3600 nM
5,B5,230 nM
6,B6,240 nM

# Biological target: T4, FcgRIIIa V
# Assay: SPR
# Remark: another data set of the same source
row,Binder,Kd
1,B7,18 nM
2,B8,2.2 nM
3,B9,14 nM
4,B10,1.8 nM

# Biological target: T1, FcgRIa
# Assay: SPR
# Remark: another data set of the same source
row,Binder,Kd
1,B7,0.46 nM
2,B8,< 0.019 nM
3,B9,0.27 nM
4,B10,< 0.024 nM

# Biological target: T2, FcgRIIb
# Assay: SPR
# Remark: another data set of the same source
row,Binder,Kd
1,B11,620 nM

# Biological target: T6, FcgRIIa H
# Assay: SPR
# Remark: another data set of the same source
row,Binder,Kd
1,B11,690 nM

# Biological target: T4, FcgRIIIa V
# Assay: SPR
# Remark: another data set of the same source
row,Binder,Kd
1,B1,1.3 nM
2,B2,1.2 nM
3,B3,0.66 nM
4,B4,220 nM
5,B5,2.6 nM
6,B6,0.72 nM

# Biological target: T3, FcgRIIa R
# Assay: SPR
# Remark: another data set of the same source
row,Binder,Kd
1,B11,340 nM

# Biological target: T6, FcgRIIa H
# Assay: SPR
# Remark: another data set of the same source
row,Binder,Kd
1,B1,11 nM
2,B2,470 nM
3,B3,30 nM
4,B4,590 nM
5,B5,27 nM
6,B6,29 nM
